The values below come from article PMC7919418 (Genes & Development, 2021).

The term stoichiometry N denotes a count of units in the complex or per binding partner. In general, Kd refers to the constant that tells how readily two partners part at equilibrium. A lower Kd goes with higher affinity.

B4: Nxf2[541–841], recombinant (domain or fragment)
chain: LPSEYVRAVKEVFPQLTTLDGVDLQTNPGQSLQKNFLCDTGAYELVGAFLENYLREFENDEFRHNLYKYYSENSIFTLTCNYNVVQNHQTPKILQRLSKYNRHARNLRNKDYSKASDGVFFGCTYIVEILLQLPRVTHDFHSLQTDVMHYNGKGAVIYVAGLLRDEPPSTRNGHGSKTDIGGVLLGFSRQFVVTFDEANLGLGKRARRLKIANERLHITNPSKTAIRNAFSVNFPDPSERQAEEDSLDVKDHKLLLFQEVTGLISTWVTSIVEEADWDFERALKLFIQKNADHEIPDLAFA

The target of data set [1] is B4. Briefly: SEC-MALS.
For data set [2], the target named is Drosophila melanogaster Ctp (residues 1–89), untagged, coexpressed with Panx peptides (Drosophila melanogaster, UniProt Q24117 1-89). Briefly: SEC-MALS. Background: Size exclusion chromatography separates by hydrodynamic size, large species first.
For data set [3], the target named is Ctp expressed in isolation with a His6-SUMO tag (for ITC) (Drosophila melanogaster, UniProt Q24117 1-89). Nature of the data set: ITC. (In ITC the heat of successive injections is recorded.)
For a further data set, the target named is Nxt1, recombinant (Drosophila melanogaster, UniProt Q9V3H8 1-133). Briefly: SEC-MALS.
The data set “SEC-MALS” deals with the molecule itself. Briefly: SEC-MALS.

B1: Panx[263–541], recombinant, coexpressed in SFiNX[wild type] (domain or fragment)
chain: ASSQNESSKERKLRDTELDYVPVRPDEHFIRPIKFSNLIERRPPQVEFNTVNLSKADKRSLAVARAELVLEQIQQKANKEEPPEFHMVDTICKLPVNESFRNQDCFENPSPICNNMNVVYKFNSTPGTRIDLSKWGLETVPEATKRLLRLLGIDVARLKELQSTVKPSQRILKLKKEQLEQGLAPTEEQETATLYKNAATQTERRTATRDAGTQVRLESKLNGAFWQNPHFDPMNLTQHQSNVMLALQEIYQTLPSATMAVKLSRALAPALAIIKGRQP
On to B1, for which the binding result in data set [1] is recorded as “binds”.

B2: Panx peptide residues 455–466 (Panx1) (peptide)
peptide: TLYKNAATQTER
Take B2: the “stoichiometry N” value in data set [2] was 2 Panx peptides per Ctp homodimer. For the same molecule, in data set [3], the Kd was about 75 nM.

B3: Panx peptide residues 455–480 (Panx1 + 2) (peptide)
peptide: TLYKNAATQTERRTATRDAGTQVRLE
Regarding B3, the “stoichiometry N” value in data set [2] was 1 Panx peptide per Ctp homodimer. On to B4, for which the binding result in the data set with Nxt1, recombinant is given as “binds”.

B5: His6-Ctp, recombinant, coexpressed in SFiNX complexes (natural protein)
chain: MSDRKAVIKNADMSEEMQQDAVDCATQALEKYNIEKDIAAYIKKEFDKKYNPTWHCIVGRNFGSYVTHETRHFIYFYLGQVAILLFKSG
As for B5, the “stoichiometry N” value in the data set “SEC-MALS” is 2.

B6: Panx peptide residues 467–480 (Panx2) (peptide)
peptide: RTATRDAGTQVRLE
For the molecule B6, in data set [2], the “stoichiometry N” value is 2 Panx peptides per Ctp homodimer. For the same molecule, the dissociation constant Kd in data set [3] is about 140 nM.
